Data from patent US20220251184A1 (Regeneron, published 2022).

T1: Human BMP9 (human, UniProt Q9UK05 320-429)
T1 sequence (looked up): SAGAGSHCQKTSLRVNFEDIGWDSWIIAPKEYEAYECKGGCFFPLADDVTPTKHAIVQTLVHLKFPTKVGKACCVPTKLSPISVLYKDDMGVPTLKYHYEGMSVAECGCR

T2: Human BMP7 (human, UniProt P18075 293-431)
T2 sequence (looked up): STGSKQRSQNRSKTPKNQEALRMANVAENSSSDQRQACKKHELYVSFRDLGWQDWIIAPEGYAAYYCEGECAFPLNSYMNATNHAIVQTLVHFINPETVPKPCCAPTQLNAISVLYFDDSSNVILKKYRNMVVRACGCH

T3: mouse BMP6 (R&D Systems, Cat #6325-BM) (mouse, UniProt P20722 372-510, limits assumed)
T3 construct: Bought protein (R&D Systems 6325-BM or 6325-BM/CF); also called mBMP6
T3 sequence: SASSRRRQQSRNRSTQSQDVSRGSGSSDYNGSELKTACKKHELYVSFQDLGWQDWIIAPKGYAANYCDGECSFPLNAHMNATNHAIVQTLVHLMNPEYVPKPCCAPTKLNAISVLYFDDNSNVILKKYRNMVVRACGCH

T4: human BMP6 (R&D Systems, Cat #507-BP) (human, UniProt P22004 375-513, limits assumed)
T4 construct: Bought protein (R&D Systems 507-BP or 507-BP/CF); also called hBMP6; hBMP-6
T4 sequence: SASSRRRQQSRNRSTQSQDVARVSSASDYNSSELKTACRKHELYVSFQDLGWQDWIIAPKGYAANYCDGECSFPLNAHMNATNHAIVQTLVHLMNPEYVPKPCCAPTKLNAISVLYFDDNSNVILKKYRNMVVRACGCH

T5: Human BMP8A (human, UniProt Q7Z5Y6 264-402, limits assumed)
T5 sequence (looked up): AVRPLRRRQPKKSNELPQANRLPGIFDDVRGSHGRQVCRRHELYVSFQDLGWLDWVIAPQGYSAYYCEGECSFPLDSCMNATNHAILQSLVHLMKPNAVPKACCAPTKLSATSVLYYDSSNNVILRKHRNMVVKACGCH


Key:
Human BMP9 = target: T1, Human BMP9; experiment: BLI (Octet HTX), mAb captured on Protein A sensor, 100 nM ligand, 25 C
Description: (§1) Binding cross-reactivity of anti-BMP6 monoclonal antibodies to BMP6 family members, (Human: BMP6, BMP5, BMP7, BMP8A, BMP9, BMP10, BMP12, BMP14, BMP3b, Activin A, and GDF3 and mouse: BMP6 and GDF6) was determined using a real-time Bio-Layer Interferometry (BLI) biosensor using Octet HTX instrument. All binding studies were performed in 10 mM HEPES, 150 mM NaCl, 3 mM EDTA, 1 mg/mL BSA, 50 μg/mL Heparin, and 0.05% v/v Surfactant Tween-20, pH 7.4 (HBS-EBHT) buffer at 25° C. with the plate shaking at a speed of 1000 rpm. To assess binding cross-reactivity, Protein A coated Octet biosensor (Pall ForteBio Corp., #18-5010) was first dipped in wells containing […] of anti-BMP6 monoclonal antibodies for 4 minutes followed by submerging in wells containing 100 nM of different BMP6 family members for 4 minutes. The biosensors were washed in HBS-EBHT buffer in between every step of the experiment. At the end of each cycle, the Protein A biosensor was regenerated using three alternate 5 second dips in 10 mM Glycine pH 2.0 and 10 second dip HBS-EBHT buffer. The real-time binding response was monitored during the course of the experiment and the binding response at the end of every step was recorded and tabulated as shown in Tables 8A and 8B.

Human BMP7 = target: T2, Human BMP7; experiment: as above
Description: as §1

[1] = target: T3, mouse BMP6 (R&D Systems, Cat #6325-BM); experiment: as above
Description: as §1

[2] = target: T4, human BMP6 (R&D Systems, Cat #507-BP); experiment: as above
Description: as §1

Human BMP8A = target: T5, Human BMP8A; experiment: as above
Description: as §1

[3] = target: T4, human BMP6 (R&D Systems, Cat #507-BP); experiment: SPR (MASS-1), mAb captured on anti-human Fc, hBMP6 in solution, 37 C
Description: (§2) Equilibrium dissociation constants (KD values) for human and mouse BMP6 binding to purified anti-BMP6 monoclonal antibodies of this invention were determined using a real-time surface plasmon resonance (SPR) biosensor instrument, MASS-1. All binding studies were performed in 10 mM HEPES, 150 mM NaCl, 3 mM EDTA, 1 μg/mL Heparin, and 0.05% v/v Surfactant Tween-20, pH 7.4 (HBS-EHT) running buffer at 25° C. and 37° C. The HCA sensor surface was first derivatized by amine coupling the monoclonal mouse anti-human Fc antibody (GE, #BR100839) and anti-BMP6 monoclonal antibodies were individually captured. Different concentrations of human BMP6 reagents (hBMP6; R&D Systems, Cat #507-BP; 60 nM-0.94 nM; 4-fold serial dilution) or mouse BMP6 (mBMP6; R&D Systems, Cat #6325-BM; 60 nM and 15 nM) prepared in HBS-EHT running buffer were injected over the captured anti-BMP6 monoclonal antibody for 4 minutes at a flow rate of 30 μL/minute, while the dissociation of BMP6 reagent bound to captured anti-BMP6 monoclonal antibody was monitored for 10 minutes in HBS-EHT running buffer. Kinetic association (kₐ) and dissociation (kd) rate constants were determined by fitting the real-time binding sensorgrams to a 1:1 binding model with mass transport limitation using Scrubber 2.0c software. Binding dissociation equilibrium constant (KD) and dissociative half-life (t½) for different anti-BMP6 monoclonal antibodies were calculated from the kinetic rate constants as: […]

[4] = target: T3, mouse BMP6 (R&D Systems, Cat #6325-BM); experiment: SPR (MASS-1), mAb captured on anti-human Fc, mBMP6 in solution, 37 C
Description: as §2

[5] = target: T3, mouse BMP6 (R&D Systems, Cat #6325-BM); experiment: SPR (MASS-1), mAb captured on anti-human Fc, mBMP6 in solution, 25 C
Description: as §2

Row | Binder | binding response (Human BMP9) | binding response (Human BMP7) | binding response [1] | binding response [2] | binding response (Human BMP8A) | kon [3] | Kd [4] | koff [4] | kon [4] | t1/2 [4] | Kd [5] | koff [5] | kon [5] | t1/2 [5] | Kd [3] | t1/2 [3]
1 | H4H17871P (antibody, V domains shown, Fully human antibody; also called anti-BMP6 monoclonal antibody; BMP6 antibody of the invention) VH: EVQLVESGGGLVQPGGSLRLSCAASGFTFNNYAMSWVRQAPGKGLEWVSAISGSGDSTYYADSVKGRFTISRDNSKNTLYLQMNSLRAEDTAVYYCAKRSRSSPFDPWGQGTLVTVSS VL: not shown | 0.01 nm | 0 nm | 0.09 nm | 0.21 nm | 0 nm | 41600 M⁻¹ s⁻¹ | 4 nM | 9.43e-05 s⁻¹ | 23500 M⁻¹ s⁻¹ | 2.05 h | 3.39 nM | 0.000127 s⁻¹ | 37400 M⁻¹ s⁻¹ | 1.52 h |  | 
2 | H4H17855P (antibody, V domains shown, Fully human antibody; also called anti-BMP6 monoclonal antibody; BMP6 antibody of the invention) VH: EVQLVESGGGLVQPGGSLRLSCAASGFTFSSYAMSWVRQAPGKGLEWVSAISGSGGRTYYTDSVKGRFTMSRDNSKNTLYLQMNSLRAEDTAVYYCAKRPYNSPFDPWGQGTLVTVSS VL: EIVLTQSPGTLSLSPGEGATLSCRASQSVSSSYLAWYQQKPGQAPRLLIYGASSRATGIPDRFSGSGSGTDFTLTISRLEPEDFVVYYCQHFGGTPFTFGGGTKVEIK | 0 nm | 0.05 nm | 0.09 nm | 0.29 nm | -0.02 nm | 61100 M⁻¹ s⁻¹ | 6.46 nM | 0.000154 s⁻¹ | 23800 M⁻¹ s⁻¹ | 1.25 h | 3.55 nM | 0.00013 s⁻¹ | 36600 M⁻¹ s⁻¹ | 1.48 h | 1.34 nM | 2.35 h
